Molecular target: T1, SECTM1B-Fc fusion protein (extracellular domain of murine SECTM1B fused to aglycosyl human IgG1 Fc) (mouse, UniProt Q9JL59 29-160, N-glycosylated)
T1 construct: Secreted and transmembrane 1B (SECTM1B), mouse, extracellular domain; The cDNA was cloned between a CD5 leader and the human IgG1 aglycosyl Fc in pEE12(CMV/T7)CD5Lhγ1; also called mSECTM1B-Fc; Secreted and transmembrane 1B; source: CHO-S cells, purified with protein G agarose (elution with glycine pH 2.0); not shown: Fc (human IgG1, aglycosyl mutant), C-terminal, kept
T1 sequence (looked up): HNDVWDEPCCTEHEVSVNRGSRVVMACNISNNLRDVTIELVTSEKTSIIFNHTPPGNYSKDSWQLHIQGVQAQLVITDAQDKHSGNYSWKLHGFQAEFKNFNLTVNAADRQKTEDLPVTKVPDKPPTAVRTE
Experiment: SPR; BIAcore 3000, 25°C, CM5 chip; Fc fusion proteins held on separate flow cells by mouse anti-human IgG (SBH2) on amine-coupled rabbit anti-mouse antibody; Fc fusion proteins at 25 µM injected in HEPES-buffered saline pH 7.4 at 5 µl per minute
Settings: both partners purified

binding result: binds
B1: CD7-Fc fusion protein (extracellular domain of murine CD7 fused to aglycosyl human IgG1 Fc) (Fc fusion, mouse, UniProt P50283 24-150, looked up)
chain: QDVHQSPRLTIASEGDSVNITCSTRGHLEGILMKKIWPQAYNVIYFEDRQEPTVDRTFSGRINFSGSQKNLTITISSLQLADTGDYTCEAVRKVSARGLFTTVVVKEKSSQEAYRSQEPLQTSFSFP
modifications: N-glycosylated
notes: CD7, mouse, extracellular domain; The cDNA was cloned between a CD5 leader and the human IgG1 aglycosyl Fc in pEE12(CMV/T7)CD5Lhγ1; also called mCD7-Fc; source: CHO-S cells, purified with protein G agarose (elution with glycine pH 2.0); not shown: Fc (human IgG1, aglycosyl mutant), C-terminal, kept

Reference: PMC3769348, “Secreted and Transmembrane 1A Is a Novel Co-Stimulatory Ligand” (PLoS ONE, 2013)
